Substrate in series [1]: O=P(O)(O)OP(=O)(O)O
The experiment in a line: ATP formation coupled to hexokinase / glucose-6-phosphate dehydrogenase, NADP+ reduction. The format is biochemical, Syntrophus aciditrophicus. Particulars: acetate-forming direction (pyrophosphate limiting), AMP and acetyl-CoA co-substrates, 37°C, enzyme purified without ammonium sulfate fractionation. The source says: ATP formation coupled to hexokinase / glucose-6-phosphate dehydrogenase, NADP+ reduction on Purified Acs1 (native AMP-forming, acetyl-CoA synthetase)

Substrate in series [2]: CC(C)(COP(=O)(O)OP(=O)(O)OC[C@H]1O[C@@H](n2cnc3c(N)ncnc32)[C@H](O)[C@@H]1OP(=O)(O)O)[C@@H](O)C(=O)NCCC(=O)NCCS
The experiment in a line: coupled enzyme assay, NAD(H) oxidation. The format is biochemical, Syntrophus aciditrophicus. Particulars: acetyl-CoA-forming direction (CoA limiting), 37°C. From the text:
coupled enzyme assay, NAD(H) oxidation on Purified Acs1 (native AMP-forming, acetyl-CoA synthetase)

Substrate in series [3]: CC(=O)O
The series can be described thus: purified protein. Particulars: acetyl-CoA-forming direction (acetate limiting), 37°C.

Substrate in series [4]: CC(C)(COP(=O)(O)OP(=O)(O)OC[C@H]1O[C@@H](n2cnc3c(N)ncnc32)[C@H](O)[C@@H]1OP(=O)(O)O)[C@@H](O)C(=O)NCCC(=O)NCCS
The series can be described thus: coupled enzyme assay, NAD(H) oxidation. Particulars: acetyl-CoA-forming direction (CoA limiting), 37°C. The format is biochemical, Syntrophus aciditrophicus. From the text: coupled enzyme assay, NAD(H) oxidation on Recombinant Acs1 (SYN_02635 gene product)
The source holds these as a separate data set.

B1: Purified Acs1 (native AMP-forming, acetyl-CoA synthetase) (Syntrophus aciditrophicus SB) (protein)
chain: MGEESILKEFYPVPERIKAKAWVKGRGEYDKLYAESIADSAAWWAKQADEILTFYKKWDKVEDFNFDIRKGPIHVKYFEGAKLNVSYNCLDRHLATKGDKVAIQWEGNEPGEQKAYTYKDLHTEVCKFANVLKKHGIKRGDRVCIYTPMVVEAAIAMLACTRIGAVHAIVFGGFSSDALAVRIQDAQAKLLVVCDGTFRGAKAVPQKKDADVALKECPTIEKVIVVRRVGDKIACDMTPGRDLWWHDEMATVDANCECEQMDAEDTLFILYTSGSTGQPKGALHTTAGYLLYAAYTSKFAFDLHDEDIHWCTADIGWVTGHSYVVYGPLALGATSIMFEGVPNYPTYSRFWQVVEKYKVTSFYTAPTAIRAIAKEGDEWLKGIDLSSLRVLSSVGEPLNPEAWQWFYEKIGNSQCPIVDTWWQTETGGHMILPLPGAIDIKPAKPALPIMGVIPTLVDDQTGEELKNMEANGALCFKTAWPGITRTIYGDHKRYEETYFEPYPGNYFSGDGALRDKDGYYRITGRIDDVINVSGHRMGTAEIEATLNAHEKVAESAVVGYPHEVKGQSIYAYITLKTGFEPSEDLKKELTQYVRTIIGPIATPEKIQWADGLPKTRSGKIMRRILKKVAANELGDLGDTSTLADPAVVDDLVKNRL
notes: native, purified from crotonate-grown pure-culture cell extracts; single band ~74 kDa on denaturing gel; untagged
For the protein B1, the Km was 250 ± 20 µM in series [1], 260 ± 100 µM in series [2] and 590 ± 200 µM in series [3].

B2: Recombinant Acs1 (SYN_02635 gene product) (Syntrophus aciditrophicus SB) (protein)
chain: MGEESILKEFYPVPERIKAKAWVKGRGEYDKLYAESIADSAAWWAKQADEILTFYKKWDKVEDFNFDIRKGPIHVKYFEGAKLNVSYNCLDRHLATKGDKVAIQWEGNEPGEQKAYTYKDLHTEVCKFANVLKKHGIKRGDRVCIYTPMVVEAAIAMLACTRIGAVHAIVFGGFSSDALAVRIQDAQAKLLVVCDGTFRGAKAVPQKKDADVALKECPTIEKVIVVRRVGDKIACDMTPGRDLWWHDEMATVDANCECEQMDAEDTLFILYTSGSTGQPKGALHTTAGYLLYAAYTSKFAFDLHDEDIHWCTADIGWVTGHSYVVYGPLALGATSIMFEGVPNYPTYSRFWQVVEKYKVTSFYTAPTAIRAIAKEGDEWLKGIDLSSLRVLSSVGEPLNPEAWQWFYEKIGNSQCPIVDTWWQTETGGHMILPLPGAIDIKPAKPALPIMGVIPTLVDDQTGEELKNMEANGALCFKTAWPGITRTIYGDHKRYEETYFEPYPGNYFSGDGALRDKDGYYRITGRIDDVINVSGHRMGTAEIEATLNAHEKVAESAVVGYPHEVKGQSIYAYITLKTGFEPSEDLKKELTQYVRTIIGPIATPEKIQWADGLPKTRSGKIMRRILKKVAANELGDLGDTSTLADPAVVDDLVKNRL
As to B2, the Michaelis-Menten constant (Km) in series [4] is 210 ± 50 µM; in series [3], 960 ± 20 µM.
